Experiments:
Test in all cases: Kinase Profiling Assay
Type in all cases: biochemical
Conditions in all cases: for % activity: 100 μM
[1] = target: CHK2(R145W)(h) (Homo sapiens, UniProt O96017, R145W)
[2] = target: T1, Bmx(h) (Homo sapiens, UniProt P51813)
T1 sequence (P51813 1-675): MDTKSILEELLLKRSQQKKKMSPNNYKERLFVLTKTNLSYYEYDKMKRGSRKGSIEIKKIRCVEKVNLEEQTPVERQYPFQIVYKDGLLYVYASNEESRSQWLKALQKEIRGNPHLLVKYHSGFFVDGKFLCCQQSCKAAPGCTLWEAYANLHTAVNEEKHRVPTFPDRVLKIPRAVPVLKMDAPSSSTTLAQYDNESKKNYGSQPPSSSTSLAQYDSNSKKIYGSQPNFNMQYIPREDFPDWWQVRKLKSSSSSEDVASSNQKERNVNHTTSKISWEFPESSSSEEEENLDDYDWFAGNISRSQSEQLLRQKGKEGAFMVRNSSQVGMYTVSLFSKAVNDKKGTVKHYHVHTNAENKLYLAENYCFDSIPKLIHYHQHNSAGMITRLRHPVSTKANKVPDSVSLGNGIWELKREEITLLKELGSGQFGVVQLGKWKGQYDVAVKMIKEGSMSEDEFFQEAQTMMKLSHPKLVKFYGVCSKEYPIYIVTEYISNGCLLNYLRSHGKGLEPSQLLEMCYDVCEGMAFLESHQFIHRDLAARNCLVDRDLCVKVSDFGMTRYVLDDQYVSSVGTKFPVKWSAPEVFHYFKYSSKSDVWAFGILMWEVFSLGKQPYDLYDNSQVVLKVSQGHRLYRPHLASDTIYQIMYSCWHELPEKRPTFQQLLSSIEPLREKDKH

[3] = target: MELK(h) (Homo sapiens, UniProt Q14680)
Sequence of MELK(h) (Q14680 whole entry): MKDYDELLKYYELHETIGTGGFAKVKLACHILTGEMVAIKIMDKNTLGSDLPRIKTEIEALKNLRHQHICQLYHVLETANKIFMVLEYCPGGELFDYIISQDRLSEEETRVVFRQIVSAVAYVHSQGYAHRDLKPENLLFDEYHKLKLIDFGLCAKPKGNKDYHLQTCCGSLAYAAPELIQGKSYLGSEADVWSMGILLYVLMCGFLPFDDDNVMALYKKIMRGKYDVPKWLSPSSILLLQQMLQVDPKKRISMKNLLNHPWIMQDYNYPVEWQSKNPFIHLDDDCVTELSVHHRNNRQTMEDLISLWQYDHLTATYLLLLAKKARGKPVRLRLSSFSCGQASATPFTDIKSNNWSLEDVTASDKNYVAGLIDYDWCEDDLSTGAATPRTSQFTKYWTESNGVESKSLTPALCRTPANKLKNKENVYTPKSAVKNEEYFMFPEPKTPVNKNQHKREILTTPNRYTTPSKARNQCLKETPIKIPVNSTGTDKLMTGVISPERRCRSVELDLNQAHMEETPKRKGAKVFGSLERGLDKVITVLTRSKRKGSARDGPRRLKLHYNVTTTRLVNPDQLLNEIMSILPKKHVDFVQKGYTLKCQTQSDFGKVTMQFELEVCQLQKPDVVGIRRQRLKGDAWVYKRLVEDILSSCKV

[4] = target: T2, GCK(h) (Homo sapiens, UniProt Q12851)
T2 sequence (Q12851 1-820): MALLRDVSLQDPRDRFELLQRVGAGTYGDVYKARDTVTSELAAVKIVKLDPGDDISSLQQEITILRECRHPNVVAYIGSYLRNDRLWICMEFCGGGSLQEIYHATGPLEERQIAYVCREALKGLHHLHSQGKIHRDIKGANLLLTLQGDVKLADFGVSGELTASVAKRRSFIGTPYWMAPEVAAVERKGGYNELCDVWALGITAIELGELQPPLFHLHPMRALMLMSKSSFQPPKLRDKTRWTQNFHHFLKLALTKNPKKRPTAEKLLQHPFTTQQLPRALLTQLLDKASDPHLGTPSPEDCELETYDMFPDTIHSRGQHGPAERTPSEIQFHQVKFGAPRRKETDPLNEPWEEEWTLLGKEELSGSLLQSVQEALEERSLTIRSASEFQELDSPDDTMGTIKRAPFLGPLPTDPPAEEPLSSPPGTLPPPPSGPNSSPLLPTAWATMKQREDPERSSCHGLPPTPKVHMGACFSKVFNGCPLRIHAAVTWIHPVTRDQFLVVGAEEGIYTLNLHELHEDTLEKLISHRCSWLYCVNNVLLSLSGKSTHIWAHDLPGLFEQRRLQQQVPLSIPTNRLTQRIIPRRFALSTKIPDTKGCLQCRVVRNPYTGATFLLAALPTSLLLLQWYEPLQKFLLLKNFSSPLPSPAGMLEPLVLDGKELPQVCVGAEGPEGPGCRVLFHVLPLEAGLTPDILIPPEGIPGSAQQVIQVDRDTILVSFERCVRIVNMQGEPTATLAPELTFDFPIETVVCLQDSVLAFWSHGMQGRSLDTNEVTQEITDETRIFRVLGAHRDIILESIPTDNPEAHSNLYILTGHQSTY

[5] = target: PASK(h) (Homo sapiens, UniProt Q96RG2)
Sequence of PASK(h) (Q96RG2 whole entry): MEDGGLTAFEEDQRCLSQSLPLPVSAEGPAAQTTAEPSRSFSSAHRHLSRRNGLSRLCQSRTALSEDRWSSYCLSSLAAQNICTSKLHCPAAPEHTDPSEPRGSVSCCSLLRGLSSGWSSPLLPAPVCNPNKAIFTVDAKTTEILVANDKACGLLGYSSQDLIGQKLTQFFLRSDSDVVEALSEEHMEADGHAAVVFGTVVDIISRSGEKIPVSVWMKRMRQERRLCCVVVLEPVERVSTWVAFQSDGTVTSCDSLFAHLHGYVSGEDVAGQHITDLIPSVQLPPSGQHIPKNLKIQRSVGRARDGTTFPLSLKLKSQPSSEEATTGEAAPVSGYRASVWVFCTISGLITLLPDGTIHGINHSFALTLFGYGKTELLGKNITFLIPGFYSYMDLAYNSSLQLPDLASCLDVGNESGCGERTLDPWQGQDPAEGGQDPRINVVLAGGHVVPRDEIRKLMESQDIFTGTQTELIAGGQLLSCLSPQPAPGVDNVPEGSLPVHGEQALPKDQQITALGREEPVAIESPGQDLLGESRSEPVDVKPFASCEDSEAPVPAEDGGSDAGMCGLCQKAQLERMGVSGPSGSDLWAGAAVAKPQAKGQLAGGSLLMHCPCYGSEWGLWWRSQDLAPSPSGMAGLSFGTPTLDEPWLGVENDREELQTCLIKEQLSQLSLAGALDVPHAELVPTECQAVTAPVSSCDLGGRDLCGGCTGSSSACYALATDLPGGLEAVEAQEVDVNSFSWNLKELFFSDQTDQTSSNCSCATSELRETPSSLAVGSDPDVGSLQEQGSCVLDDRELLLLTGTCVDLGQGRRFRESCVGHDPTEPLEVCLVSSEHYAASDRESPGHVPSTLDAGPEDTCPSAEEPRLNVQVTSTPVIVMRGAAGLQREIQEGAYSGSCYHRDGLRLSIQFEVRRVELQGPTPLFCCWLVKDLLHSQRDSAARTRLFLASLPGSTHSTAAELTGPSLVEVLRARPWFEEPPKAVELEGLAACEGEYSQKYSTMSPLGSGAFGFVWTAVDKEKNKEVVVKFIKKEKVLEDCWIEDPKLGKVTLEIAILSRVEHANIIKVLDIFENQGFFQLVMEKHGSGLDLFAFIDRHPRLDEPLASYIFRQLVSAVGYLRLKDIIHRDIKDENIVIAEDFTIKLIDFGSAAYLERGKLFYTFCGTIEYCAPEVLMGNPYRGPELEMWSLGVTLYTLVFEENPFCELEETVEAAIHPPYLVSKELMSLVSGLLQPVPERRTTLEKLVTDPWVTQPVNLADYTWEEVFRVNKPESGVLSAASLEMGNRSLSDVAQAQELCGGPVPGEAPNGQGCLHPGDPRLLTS

[6] = target: T3, PKCτ(h) (Homo sapiens, UniProt P41743)
T3 sequence (P41743 1-596): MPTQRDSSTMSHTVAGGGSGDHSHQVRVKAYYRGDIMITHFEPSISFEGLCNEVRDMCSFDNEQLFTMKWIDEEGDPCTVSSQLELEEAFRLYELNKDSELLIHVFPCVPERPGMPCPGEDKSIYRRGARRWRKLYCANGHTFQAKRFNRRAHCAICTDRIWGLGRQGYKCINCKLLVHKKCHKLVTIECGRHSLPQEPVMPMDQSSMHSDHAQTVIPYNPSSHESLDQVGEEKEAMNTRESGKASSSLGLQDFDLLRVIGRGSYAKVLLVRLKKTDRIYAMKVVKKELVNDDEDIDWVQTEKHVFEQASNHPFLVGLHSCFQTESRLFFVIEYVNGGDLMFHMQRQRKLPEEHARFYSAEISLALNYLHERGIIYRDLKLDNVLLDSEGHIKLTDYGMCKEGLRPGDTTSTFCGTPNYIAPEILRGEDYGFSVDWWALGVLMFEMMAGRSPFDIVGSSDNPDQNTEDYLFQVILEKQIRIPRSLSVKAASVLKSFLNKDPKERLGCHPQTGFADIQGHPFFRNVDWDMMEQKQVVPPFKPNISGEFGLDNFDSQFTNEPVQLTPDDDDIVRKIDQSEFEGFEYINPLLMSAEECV

[7] = target: PKCδ(h) (Homo sapiens, UniProt Q05655)
Sequence of PKCδ(h) (Q05655 whole entry): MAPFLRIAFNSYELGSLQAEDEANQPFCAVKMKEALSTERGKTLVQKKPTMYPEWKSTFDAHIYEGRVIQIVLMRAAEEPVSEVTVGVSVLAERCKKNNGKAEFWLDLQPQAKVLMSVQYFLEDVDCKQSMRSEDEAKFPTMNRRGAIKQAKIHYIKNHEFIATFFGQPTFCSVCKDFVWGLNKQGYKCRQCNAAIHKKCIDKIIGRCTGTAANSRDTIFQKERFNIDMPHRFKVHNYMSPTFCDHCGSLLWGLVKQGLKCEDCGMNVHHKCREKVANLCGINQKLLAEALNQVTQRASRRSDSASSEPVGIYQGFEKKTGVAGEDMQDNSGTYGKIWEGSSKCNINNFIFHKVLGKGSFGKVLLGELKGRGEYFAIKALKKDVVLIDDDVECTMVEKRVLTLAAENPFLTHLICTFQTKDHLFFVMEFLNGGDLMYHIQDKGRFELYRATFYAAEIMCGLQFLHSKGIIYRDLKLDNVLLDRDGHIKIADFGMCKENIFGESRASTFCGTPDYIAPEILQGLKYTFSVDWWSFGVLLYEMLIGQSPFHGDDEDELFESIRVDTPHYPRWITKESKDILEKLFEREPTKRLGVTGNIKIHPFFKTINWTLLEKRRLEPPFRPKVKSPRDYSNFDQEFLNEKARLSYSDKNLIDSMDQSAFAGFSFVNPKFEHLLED

Sequence of CHK2(R145W)(h) (O96017 whole entry R145W): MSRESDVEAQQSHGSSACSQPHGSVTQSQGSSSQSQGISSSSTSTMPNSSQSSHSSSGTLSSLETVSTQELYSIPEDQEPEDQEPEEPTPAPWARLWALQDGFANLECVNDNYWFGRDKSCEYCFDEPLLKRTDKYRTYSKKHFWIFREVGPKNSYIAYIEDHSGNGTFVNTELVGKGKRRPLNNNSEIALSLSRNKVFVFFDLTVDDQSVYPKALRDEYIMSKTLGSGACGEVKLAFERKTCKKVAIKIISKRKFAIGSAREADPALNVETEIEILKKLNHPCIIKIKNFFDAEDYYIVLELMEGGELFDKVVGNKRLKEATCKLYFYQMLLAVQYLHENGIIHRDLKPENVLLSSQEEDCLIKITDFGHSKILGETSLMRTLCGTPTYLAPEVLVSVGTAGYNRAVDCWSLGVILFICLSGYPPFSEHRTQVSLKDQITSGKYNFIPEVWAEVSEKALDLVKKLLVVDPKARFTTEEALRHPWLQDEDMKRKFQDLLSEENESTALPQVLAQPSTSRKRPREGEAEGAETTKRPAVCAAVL

Substance | activity at 100 µM [1] | activity at 100 µM [2] | activity at 100 µM [3] | activity at 100 µM [4] | activity at 100 µM [5] | activity at 100 µM [6] | activity at 100 µM [7] | % activity [1] | % activity [2] | % activity [3] | % activity [4] | % activity [5] | % activity [6] | % activity [7]
H-YARAAARQARAKALARQLGVAA-OH [MMI-0100] | 97% | 62% | 74% | 98% | 81% | 110% | 100% | – | – | – | – | – | – | –
HRRIKAWLKKIKALARQLGVAA (Mammalian) [MMI-0500] | – | – | – | – | – | – | – | 3% | 45% | 0% | 30% | 9% | 7% | 61%
YARAAARQARAKALNRQLGVA (Mammalian) [MMI-0200] | – | – | – | – | – | – | – | 81% | 76% | 59% | 99% | 60% | 97% | 101%
